{"source": "paper PMC12855784", "test_in_all_cases": "SEC-MALS", "key": {"[1]": {"molecular_target": "AcrIIA19 (full length, C-terminal 6×His tag) (Staphylococcus pseudintermedius)"}, "[2]": {"molecular_target": "Streptococcus pyogenes Cas9, full length, 6×His tagged (Streptococcus pyogenes) (UniProt Q99ZW2)", "sequence (Q99ZW2 whole entry)": "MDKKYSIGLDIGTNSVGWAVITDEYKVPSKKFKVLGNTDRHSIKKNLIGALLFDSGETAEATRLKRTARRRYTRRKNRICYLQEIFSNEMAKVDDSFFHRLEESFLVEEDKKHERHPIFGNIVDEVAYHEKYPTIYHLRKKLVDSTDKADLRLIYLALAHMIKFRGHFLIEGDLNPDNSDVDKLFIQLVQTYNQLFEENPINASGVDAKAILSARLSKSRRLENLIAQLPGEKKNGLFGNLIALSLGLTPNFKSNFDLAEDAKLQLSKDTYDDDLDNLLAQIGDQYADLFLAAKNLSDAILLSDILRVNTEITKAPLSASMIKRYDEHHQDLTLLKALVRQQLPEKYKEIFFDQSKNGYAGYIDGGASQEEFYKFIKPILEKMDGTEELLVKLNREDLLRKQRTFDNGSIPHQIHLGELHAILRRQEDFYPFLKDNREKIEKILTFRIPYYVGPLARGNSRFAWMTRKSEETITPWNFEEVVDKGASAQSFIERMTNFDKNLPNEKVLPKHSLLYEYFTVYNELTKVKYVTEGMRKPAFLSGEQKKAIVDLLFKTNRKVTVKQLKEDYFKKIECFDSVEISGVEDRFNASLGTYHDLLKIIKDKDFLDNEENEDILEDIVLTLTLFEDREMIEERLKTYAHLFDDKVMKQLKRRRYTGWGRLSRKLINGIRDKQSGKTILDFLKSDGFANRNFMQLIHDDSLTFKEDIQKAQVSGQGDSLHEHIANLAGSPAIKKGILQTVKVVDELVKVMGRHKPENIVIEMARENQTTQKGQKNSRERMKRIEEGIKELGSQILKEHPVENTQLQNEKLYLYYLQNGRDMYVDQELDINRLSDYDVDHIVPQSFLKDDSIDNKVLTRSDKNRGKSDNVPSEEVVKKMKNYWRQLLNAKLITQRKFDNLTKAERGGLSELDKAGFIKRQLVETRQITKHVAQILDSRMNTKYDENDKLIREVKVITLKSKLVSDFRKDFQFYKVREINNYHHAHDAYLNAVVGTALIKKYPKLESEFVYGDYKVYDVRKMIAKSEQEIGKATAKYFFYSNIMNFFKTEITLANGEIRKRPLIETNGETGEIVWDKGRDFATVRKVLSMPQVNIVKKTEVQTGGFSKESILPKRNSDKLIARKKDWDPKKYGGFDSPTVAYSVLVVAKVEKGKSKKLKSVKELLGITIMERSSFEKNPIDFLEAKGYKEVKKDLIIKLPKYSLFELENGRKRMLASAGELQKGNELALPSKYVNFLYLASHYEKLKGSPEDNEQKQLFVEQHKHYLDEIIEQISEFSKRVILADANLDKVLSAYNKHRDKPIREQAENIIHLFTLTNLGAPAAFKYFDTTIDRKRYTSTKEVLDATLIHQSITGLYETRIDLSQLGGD"}, "[3]": {"molecular_target": "AcrIIA19 (full length, C-terminal 6×His tag) (Staphylococcus pseudintermedius)", "remark": "listed apart in the source"}}, "note": "Read-outs that look alike come from different tables or passages of the source.", "data": [{"substance": "AcrIIA19 (full length, C-terminal 6×His tag) (natural protein)", "values": [{"measurement": "stoichiometry N", "setting": "[1]", "value": 2}, {"measurement": "stoichiometry N (AcrIIA19 per Cas9)", "setting": "[2]", "value": 1}, {"measurement": "stoichiometry N", "setting": "[3]", "value": 2}]}]}
